Consider four molecules from patent US20220363757A1 (SYMPHOGEN A S, published 2022).

Where a chain is given by its changes, count along the chain named.

Holding throughout (test): SPR, Fab over captured mutant LAG-3-Fc;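 further: LAG-3 fusion proteins captured on an anti-human IgG Fc sensor chip and read on an IBIS MX96 biosensor, Fab association and dissociation each 15 min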
(SPR reads the build-up and loss of mass on a sensor chip optically.)

In test [1] the target is T1, human LAG-3 domain 1-2 Fc fusion, chimeric construct #4 (mutated region AA 40-47) (human, UniProt P18627 23-266).
T1 construct: not shown: human IgG1 Fc, AA P101-K330
T1 chain: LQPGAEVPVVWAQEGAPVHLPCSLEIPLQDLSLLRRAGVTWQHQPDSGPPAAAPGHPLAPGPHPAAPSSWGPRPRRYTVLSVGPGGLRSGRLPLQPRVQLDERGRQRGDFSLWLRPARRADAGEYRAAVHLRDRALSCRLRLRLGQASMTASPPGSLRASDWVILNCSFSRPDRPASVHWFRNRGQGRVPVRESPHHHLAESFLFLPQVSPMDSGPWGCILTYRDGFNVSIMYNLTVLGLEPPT

Test [2] concerns the target T2, human LAG-3 domain 1-2 Fc fusion, chimeric construct #2 (mutated region AA 29-30) (human, UniProt P18627 23-266).
T2 construct: not shown: human IgG1 Fc, AA P101-K330
T2 chain: T1 chain with V7L, P8S, V18A, H19Q, L24P, E25T

Test [3] has as its target T3, human LAG-3 domain 1-2 Fc fusion, chimeric construct #15 (mutated region AA 95-100) (human, UniProt P18627 23-266).
T3 construct: not shown: human IgG1 Fc, AA P101-K330
T3 chain: T1 chain with V18A, H19Q, L24P, E25T, R73G, R76S, T78V

Test [4] addresses T4, human LAG-3 domain 1-2 Fc fusion, chimeric construct #14 (mutated region AA 88-97) (human, UniProt P18627 23-266).
T4 construct: not shown: human IgG1 Fc, AA P101-K330
T4 chain: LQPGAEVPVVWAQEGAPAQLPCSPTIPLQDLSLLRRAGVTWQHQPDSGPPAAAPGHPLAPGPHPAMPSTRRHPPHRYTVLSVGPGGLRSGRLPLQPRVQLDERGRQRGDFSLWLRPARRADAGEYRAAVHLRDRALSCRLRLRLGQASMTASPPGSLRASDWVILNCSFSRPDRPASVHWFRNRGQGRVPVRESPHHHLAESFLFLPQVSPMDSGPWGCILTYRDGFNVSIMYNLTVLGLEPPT

The target in test [5] is T5, human LAG-3 domain 1-2 Fc fusion, chimeric construct #10 (mutated region AA 70-77) (human, UniProt P18627 23-266).
T5 construct: 'Q71Q' copied as printed; construct #9 prints P71Q for the same position
T5 chain: T1 chain with V18A, H19Q, L24P, E25T, G48D, P49Q, A52S, A53I, G55A

The target of test [6] is T6, human LAG-3 domain 1-2 Fc fusion, chimeric construct #25 (mutated region AA 154-158) (human, UniProt P18627 23-266).
T6 construct: not shown: human IgG1 Fc, AA P101-K330
T6 chain: T1 chain with V18A, H19Q, L24P, E25T, R132P, A135D, L136F

Test [7] concerns the target T7, human LAG-3 domain 1-2 Fc fusion, chimeric construct #9 (mutated region AA 66-71) (human, UniProt P18627 23-266).
T7 construct: not shown: human IgG1 Fc, AA P101-K330
T7 chain: T1 chain with V18A, H19Q, L24P, E25T, Q44R, G48D, P49Q

Test [8] deals with T8, human LAG-3 domain 1-2 Fc fusion, chimeric construct #27 (mutated region AA 161-166) (human, UniProt P18627 23-266).
T8 construct: not shown: human IgG1 Fc, AA P101-K330
T8 chain: T1 chain with V18A, H19Q, L24P, E25T, R139S, L144V

B1: Fab fragment of antibody 15572 (Fab, V domains shown, not shown: a dimerising Fc or GST)
VH: QLQLQESGPGLVKPSETLSLTCTVSGDSISSSSYYWGWIRQPPGKGLEWIGSIFYSGNTYYNPSLKSRVTISVDTSKNQFSLKLSSVTAADTAVYYCAREDDFLTDYYGAFDIWGQGTMVTVSS
VL: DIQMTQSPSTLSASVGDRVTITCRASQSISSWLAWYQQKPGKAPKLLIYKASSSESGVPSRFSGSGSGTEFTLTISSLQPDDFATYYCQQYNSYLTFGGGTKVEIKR
notes: monomeric Fab made by GingisKHAN digestion of the IgG1
On to B1, for which the binding result in test [1], in test [2] and in test [6] was “no binding (tested: 300 nM)” throughout. The “KD mutant/KD wild type” value was 3.1 fold in test [3]; 0.7 fold in test [4]; 0.7 fold in test [5]; 1.1 fold in test [7]; 1.7 fold in test [8].

B2: Fab fragment of antibody 15532 (Fab, V domains shown, not shown: a dimerising Fc or GST)
VH: QVQLQQWGAGLLRPSETLSLTCAVYGESFSGYYWNWIRQPPGKGLEWIGEINHSGSTNYNPSLKSRVTISVDTSKTQFSLKLSSVTAADTAVYYCARGWDLLDWNDYWNEYWGQGTLVTVSS
VL: EIVLTQSPATLSLSPGERATLSCRASQSVSSYLAWYQQKPGQAPRLLIYDASNRATGIPARFSGSGSGTDFTLTISSLEPEDFAVYYCQQRSNWPLTFGGGTKVEIKR
notes: as for B1
On to B2, for which the “KD mutant/KD wild type” value was determined as 3.9 fold in test [1]; 3.1 fold in test [2]; 6.5 fold in test [3]; 1.1 fold in test [5]; 1.1 fold in test [6]; 3.9 fold in test [7]. For the same molecule, in test [8], the “KD mutant/KD wild type” value was 0.8 fold. The binding result in test [4] is on record as “no binding (tested: 300 nM)”.

B3: Fab fragment of antibody 15431 (Fab, V domains shown, not shown: a dimerising Fc or GST)
VH: QVQLQQSGPGLVKPSQTLSLTCAISGDSVSSNSAAWNWIRQSPSRGLEWLGRTYYRSKWYNDYAVSVKSRITINPDTSKNQFSLQLNSVTPEDTAVYYCARDDDWNDFDYWGQGTLVTVSS
VL: B2 VL
notes: as for B1
Consider B3, for which the binding result in test [1], in test [2], in test [3] and in test [4] was “no binding (tested: 300 nM)” throughout. The “KD mutant/KD wild type” value in test [5] was 1.1 fold; in test [6] it was 0.8 fold; in test [7], 0.4 fold; in test [8], 1.3 fold.

B4: Fab fragment of antibody 15011 (Fab, V domains shown, not shown: a dimerising Fc or GST)
VH: EVQLLESGGGLVQPGGSLRLSCAASGFDFRSYAMMWVRQAPGKGLEWVGGINGEVGGSNTYYAPAVKGRATISRDNSKNTLYLQMNSLRAEDTAVYYCVKGAGACGICNDDIDAWGQGTLVTVSS
VL: SYELTQDPAVSVALGQTVRITCSGAGSYAGSYYYGWHQQKPGQAPVTVIYDNDKRPSNIPDRFSGSSSGNTASLTITGAQAEDEADYYCGSTNDNDDGGLFGSGTKVTVLG
notes: as for B1
Turning to B4, the “KD mutant/KD wild type” value in test [1] was 0.5 fold; in test [2], 0.5 fold; in test [3], 1.9 fold; in test [4], 0.6 fold; in test [5], 1.8 fold; in test [6], 1.9 fold. Also, the “KD mutant/KD wild type” value in test [7] worked out at 0.7 fold; in test [8], 2.3 fold.
